The subject of test [1] is scMad1^E–scMad2 complex. In words: in vitro pull-down of scMad1^E–scMad2 by GST-scBub1 fragments. It counts as binding, Saccharomyces cerevisiae. The note with it: scBub1 fragments alone or co-expressed with scMps1 kinase domain. The method, then:
Expression of GST-BubR1^N (residues 1–370), GST-Mad2, GST-scBub1 fragments, GST-Mad1, and GST-scMad1 fragments in BL21(DE3) was induced by 0.1 mM isopropyl β-D-1-thiogalactopyranoside (IPTG) at 16°C overnight, after the OD600 reached 0.8. Mad1 and scMad1 fragments (Mad1^E) containing the Mad2-interacting motif (MIM) were co-expressed with Mad2 and scMad2, respectively. Fragments of scBub1 were co-expressed with His6-scMps1 (the kinase domain; residues 440–720). […] After sonication, lysates were cleared by centrifugation at 4°C. Supernatants were filtered by 0.45 µm filter and incubated with pre-equilibrated Glutathione Sepharose 4B beads (GE Healthcare). Protein-bound beads were washed with 40 volumes of the wash buffer I. The proteins were then eluted with reduced glutathione (Sigma) or cleaved with the PreScission protease. Eluates were dialyzed to the QA buffer (25 mM Tris-HCl, pH 8.0, 20 mM NaCl, 3 mM DTT), loaded onto a Resource Q column (GE Healthcare), and then eluted with the QB buffer (25 mM Tris-HCl, pH 8.0, 1 M NaCl, 3 mM DTT). Peak fractions were pooled and further purified with a Superdex 200 size exclusion column (GE Healthcare). […]
Recombinant bait proteins or bacteria lysates containing bait proteins were incubated with the appropriate affinity beads. […] The bead-bound proteins were analyzed by Coomassie blue staining or Western blotting. […]

The target of test [2] is T1, C-terminal domain (CTD) of scMad1 (Saccharomyces cerevisiae, UniProt P40957).
T1 sequence (P40957 633-749 limits assumed): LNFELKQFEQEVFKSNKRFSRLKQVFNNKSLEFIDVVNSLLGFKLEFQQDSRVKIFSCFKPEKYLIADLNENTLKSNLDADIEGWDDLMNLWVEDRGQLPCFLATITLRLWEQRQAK
In words: ITC, scBub1 fragment or phospho-peptides with scMad1 CTD. It counts as binding. The conditions noted are these: 20°C, 25 mM HEPES pH 7.5, 150 mM NaCl, scMad1 20 µM in cell, scBub1 phospho-peptide or fragment 300 µM injected, read-out: Kd, dissociation constant. The method, then:
(§1) All isothermal titration calorimetry (ITC) assays were performed with a MicroCal Omega ITC200 titration calorimeter (GE Life Sciences) at 20°C. Recombinant scMad1^CTD protein or scMad1–scMad2 complexes were dialyzed into the HEPES Buffer I (25 mM HEPES, pH 7.5, 150 mM NaCl). Recombinant human Mad1^CTD protein was dialyzed into the HEPES Buffer II (25 mM HEPES, pH 7.5, 50 mM NaCl). For each titration, 300 μl of scMad1 proteins (20 µM) or human Mad1 (50 µM) were added to the calorimeter cell. The scBub1 phospho-peptides or purified scMps1-phosphorylated scBub1_449–530 fragment (300 µM) in the HEPES Buffer I or the human Bub1 phospho-peptides (500 µM) in the HEPES Buffer II were injected with an injection syringe in 19 2-μl portions. The raw data were processed and fitted with the NITPIC software package ([Keller et al., 2012]).

Test [3] addresses scMad1^E–scMad2 complex. In words: ITC, Mps1-phosphorylated scBub1 fragment with scMad1^E–scMad2 complex. It is filed as binding, Saccharomyces cerevisiae. The note with it: 20°C, 25 mM HEPES pH 7.5, 150 mM NaCl, scMad1 proteins 20 µM in cell, scBub1 fragment 300 µM injected, read-out: Kd, dissociation constant (affinity). The method, then: as §1
On the technique in general: In ITC the heat of successive injections is recorded.

B1: scBub1_369–608: scBub1 fragment co-expressed with the kinase domain of scMps1 in bacteria (protein)
chain: RKLDVLVERRQDLPSSQPPVVPKSTRIEVFKDDDNPSQSTHHKNTQVQVQTTTSILPLKPVVDGNLAHETPVKPSLTSNASRSPTVTAFSKDAINEVFSMFNQHYSTPGALLDGDDTTTSKFNVFENFTQEFTAKNIEDLTEVKDPKQETVSQQTTSTNETNDRYERLSNSSTRPEKADYMTPIKETTETDVVPIIQTPKEQIRTEDKKSGDNTETQTQLTSTTIQSSPFLTQPEPQAEK
modifications: left off: GST, N-terminal, kept
notes: scBub1 fragment co-expressed with the kinase domain of scMps1 in bacteria
Take B1: in the test on scMad1^E–scMad2 complex [1], the “binding to scMad1^E–scMad2 (in words)” value is “only the phosphorylated scBub1 bound to the scMad1^E–scMad2 complex”.

B2: Phosphorylated scBub1449–530: Mps1-phosphorylated scBub1 fragment containing the CM (protein)
chain: SRSPTVTAFSKDAINEVFSMFNQHYSTPGALLDGDDTTTSKFNVFENFTQEFTAKNIEDLTEVKDPKQETVSQQTTSTNETN
modifications: phosphothreonine at 453, phosphothreonine at 455, phosphoserine at 458 (mass spectrometry; co-expressed with scMps1); left off: GST, N-terminal, state not stated
notes: Mps1-phosphorylated scBub1 fragment containing the CM
Turning to B2, the Kd (as a rule, the free concentration of one partner at which half of the binding sites on the other are occupied at equilibrium, for simple one-to-one binding) in test [2] stood at 2930 nM; at scMad1^E–scMad2 complex [3] it was 2210 nM.

The values are drawn from PMC5268738, “A sequential multi-target Mps1 phosphorylation cascade promotes spindle checkpoint signaling” (eLife, 2017).
